Results on one molecule are retold here after patent publication US20040072184A1.

In experiment [1] the target is T1, CapK peptide.
T1 sequence (peptide): CGRTGRRNSI
The experiment can be described thus: cell-based or functional assay.

Experiment [2] deals with T2, PKB-sub peptide.
T2 sequence (peptide): CKRPRAASFAE
The experiment can be described thus: cell-based or functional assay.

B1: GST-SGK2 fusion protein (enzyme, not shown: a dimerising Fc or GST)
chain: MNSSPAGTPSPQPSRANGNINLGPSANPNAQPTDFDFLKVIGKGNYGKVLLAKRKSDGAFYAVKVLQKKSILKKKEQSHIMAERSVLLKNVRHPFLVGLRYSFQTPEKLYFVLDYVNGGELFFHLQRERRFLEPRARFYAAEVASAIGYLHSLNIIYRDLKPENILLDCQGHVVLTDFGLCKEGVEPEDTTSTFCGTPEYLAPEVLRKEPYDRAVDWWCLGAVLYEMLHGLPPFYSQDVSQMYENILHQPLQIPGGRTVAACDLLQSLLHKDQRQRLGSKADFLEIKNHVFFSPINWDDLYHKRLTPPFNPNVTGPADLKHFDPEFTQEAVSKSIGCTPDTVASSSGASSAFLGFSYAPEDDDILDC
In experiment [1], B1 registered a kinase activity, CapK sub (CCPM1); GST-SGK2 from Hi5 cells treated with Calyculin A of 59300 CCPM1; a kinase activity, CapK sub (CCPM1); GST-SGK2 from Hi5 cells treated with Microcysteine of 330 CCPM1; a kinase activity, CapK sub (CCPM1); GST-SGK2 from Hi5 cells treated with Okadaic Acid of 162000 CCPM1; a kinase activity, CapK sub (CCPM1); GST-SGK2 from untreated Hi5 cells of 1080 CCPM1. Also, in experiment [2], the kinase activity, PKB sub (CCPM1); GST-SGK2 from Hi5 cells treated with Calyculin A is 92500 CCPM1; the kinase activity, PKB sub (CCPM1); GST-SGK2 from Hi5 cells treated with Microcysteine worked out at 217 CCPM1; the kinase activity, PKB sub (CCPM1); GST-SGK2 from Hi5 cells treated with Okadaic Acid is 132000 CCPM1; the kinase activity, PKB sub (CCPM1); GST-SGK2 from untreated Hi5 cells came out at 979 CCPM1.
